14 substances from article PMC4359370 can be followed below.

Assay [1] concerns the target wild-type POT1-TPP1 complex (POT1-TPP1N) (human) (UniProt Q9NUX5).
In assay [2] the target is POT1-TPP1 E169K complex (wild-type POT1 with TPP1N E169K) (human) (UniProt Q9NUX5).
Assay [3] has as its target POT1-TPP1 E215K complex (wild-type POT1 with TPP1N E215K) (human) (UniProt Q9NUX5).
Assay [4] deals with POT1-TPP1 E169K complex (wild-type POT1 with TPP1N E169K) (human) (UniProt Q9NUX5). This is another data set of the same source.
The target in assay [5] is POT1-TPP1 E215K complex (wild-type POT1 with TPP1N E215K) (human) (UniProt Q9NUX5). The source holds these as a separate data set.
Assay [6] addresses wild-type POT1-TPP1 complex (POT1-TPP1N) (human) (UniProt Q9NUX5). This is another data set of the same source.
The target in a further assay is GFP-TPP1-OB-LacI (human). The assay can be described thus: LacI-LacO tethering assay (co-localisation of GFP and mCherry foci); GFP-TPP1-OB-LacI tethered to a single LacO array on chromosome 1 of U2OS 2-6-3 cells, co-transfected with mCherry-hTERT and hTR; fixed cells, intrinsic fluorescence; fraction of nuclei with co-localised foci (n = 3, 117-176 nuclei total).
Sequence of GFP-TPP1-OB-LacI (human) (Q96AP0 whole entry): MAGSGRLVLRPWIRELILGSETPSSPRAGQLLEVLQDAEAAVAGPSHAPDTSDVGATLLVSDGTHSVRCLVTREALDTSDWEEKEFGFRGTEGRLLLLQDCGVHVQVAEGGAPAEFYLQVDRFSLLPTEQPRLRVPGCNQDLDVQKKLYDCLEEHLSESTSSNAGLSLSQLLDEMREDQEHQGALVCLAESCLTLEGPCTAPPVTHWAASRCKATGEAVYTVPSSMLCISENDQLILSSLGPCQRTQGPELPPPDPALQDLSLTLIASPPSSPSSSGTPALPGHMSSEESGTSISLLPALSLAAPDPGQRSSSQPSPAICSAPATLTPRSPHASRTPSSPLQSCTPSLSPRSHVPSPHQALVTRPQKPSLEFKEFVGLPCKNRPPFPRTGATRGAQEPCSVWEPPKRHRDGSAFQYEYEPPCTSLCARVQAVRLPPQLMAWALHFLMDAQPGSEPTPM

Take “hTERT K78A telomerase (ZZ-TEV-3xFlag-hTERT K78A with hTR) (from UniProt O14746 1-1132) (enzyme)”: in assay [1], the RAP stimulation by PT % of WT (direct telomerase activity assay) is 88 % of WT.

With “hTERT K78E telomerase (ZZ-TEV-3xFlag-hTERT K78E with hTR) (from UniProt O14746 1-1132) (enzyme)”, the RAP stimulation by PT % of WT (direct telomerase activity assay) in assay [1] is 68 % of WT. Further, the RAP stimulation by POT1-TPP1 relative to wild-type telomerase and wild-type TPP1 (direct telomerase activity assay) is below 24% in assay [2] and 98% in assay [3]. As to “hTERT K78E;R120E telomerase (ZZ-TEV-3xFlag-hTERT with hTR) (from UniProt O14746 1-1132) (enzyme)”, the RAP stimulation by PT % of WT (direct telomerase activity assay) in assay [1] was 38 % of WT. Regarding “hTERT K78E;R132E telomerase (ZZ-TEV-3xFlag-hTERT with hTR) (from UniProt O14746 1-1132) (enzyme)”, the RAP stimulation by PT % of WT (direct telomerase activity assay) in assay [1] was 18 % of WT. The RAP stimulation by POT1-TPP1 relative to wild-type telomerase and wild-type TPP1 (direct telomerase activity assay) in assay [2] and in assay [3] was below 23% in each case. Turning to “hTERT R72E telomerase (ZZ-TEV-3xFlag-hTERT R72E with hTR) (from UniProt O14746 1-1132) (enzyme)”, the RAP stimulation by PT % of WT (direct telomerase activity assay) in assay [1] is 91 % of WT.

Regarding “hTERT R87E;R91E;K94E telomerase (ZZ-TEV-3xFlag-hTERT with hTR) (from UniProt O14746 1-1132) (enzyme)”, the RAP stimulation by PT % of WT (direct telomerase activity assay) in assay [1] is 61 % of WT. For “hTERT R120E telomerase (ZZ-TEV-3xFlag-hTERT R120E with hTR) (from UniProt O14746 1-1132) (enzyme)”, in assay [1], the RAP stimulation by PT % of WT (direct telomerase activity assay) was 55 % of WT. On to “hTERT R132E telomerase (ZZ-TEV-3xFlag-hTERT R132E with hTR) (from UniProt O14746 1-1132) (enzyme)”, for which the RAP stimulation by PT % of WT (direct telomerase activity assay) in assay [1] is 24 % of WT. Further, the RAP stimulation by POT1-TPP1 relative to wild-type telomerase and wild-type TPP1 (direct telomerase activity assay) in assay [2] and in assay [3] was below 23% in each case.

As for “hTERT R142E telomerase (ZZ-TEV-3xFlag-hTERT R142E with hTR) (from UniProt O14746 1-1132) (enzyme)”, in assay [1], the RAP stimulation by PT % of WT (direct telomerase activity assay) is 103 % of WT. For the substance “hTERT V144M telomerase (ZZ-TEV-3xFlag-hTERT V144M with hTR) (from UniProt O14746 1-1132) (enzyme)”, in assay [1], the RAP stimulation by PT % of WT (direct telomerase activity assay) was 44 % of WT. In addition, the RAP stimulation by POT1-TPP1 relative to wild-type telomerase with wild-type POT1-TPP1 (direct telomerase activity assay) was 28% in assay [4] and 37% in assay [5]. In addition, the POT1-TPP1 RAP stimulation compared to wild-type telomerase (direct telomerase activity assay) in assay [6] worked out at 61%. For “mCherry-hTERT K78E (with hTR) (from UniProt O14746 1-1132) (enzyme)”, the fraction of TPP1-OB-fold domain foci showing telomerase signal with GFP-TPP1-OB-LacI (human) was 55%. The substance “mCherry-hTERT R132E (with hTR) (from UniProt O14746 1-1132) (enzyme)” displayed a fraction of TPP1-OB-fold domain foci showing telomerase signal in the assay with GFP-TPP1-OB-LacI (human) of 30%. With “mCherry-hTERT wild type (with hTR) (from UniProt O14746 1-1132) (enzyme)”, the fraction of nuclei with co-localisation with GFP-TPP1-OB-LacI (human) amounted to 90%. For “wild-type telomerase (ZZ-TEV-3xFlag-hTERT with hTR) (from UniProt O14746 1-1132) (enzyme)”, the values for the RAP stimulation by POT1-TPP1 relative to wild-type telomerase and wild-type TPP1 (direct telomerase activity assay) in assay [2] and in assay [3] were below 24% and 78%, respectively.
